Assay results taken from the DeepSol protein solubility set.

Assay: soluble on expression in E. coli; label from the status in PepcDB or PDB records

Sequence	soluble on expression in E. coli
GSACELPECQEDAGNKVCSLQCNNHACGWDGGDCSLNFNDPWKNCTQSLQCWKYFSDGHCDSQCNSAGCLFDGFDCQRAEGQCNPLYDQYCKDHFSDGHCDQGCNSAECEWDGLDCAEHVPERLAAGTLVVVVLMPPEQLRNSSFHFLRELSRVLHTNVVFKRDAHGQQMIFPYYGDVRGSIVYLEIDNRQCVQASSQCFQSATDVAAFLGALASLGSLNIPYKIEAVQSETVEPANSHHHHHH	soluble
GSAGDVTNDLSHVRKIIVACDAGMGSSAMGAGVLRKKIQDAGLSQISVTNSAINNLPPDVDLVITHRDLTERAMRQVPQAQHISLTNFLDSGLYTSLTERLVAAQRHTENEVKVKDSLKDSFDDS	soluble
GSEFAIDPNEPTYCLCNQVSYGEMIGCDNEQCPIEWFHFSCVSLTYKPKGKWYCPKCRGDNE	soluble
GSFTSSGCQEANYGALLRELCLTQFQVDMEAVGETLWCDWGRTIRSYRELADCTWHMAEKLGCFWPNAEVDRFFLAVHGRYFRSCPISGRAVR	soluble
GSGLSAQDISQPLQNSFIHTGHGDSDPRHCWGFPDRIDELYLGN	soluble
GSHMAAAKQDVKVFSEDGTSKVVEILADMTARDLCQLLVYKSHSVDDNSWTLVEHHPHLGLERCLEDHELVVQVESTMASESKFLFRKNYAKYEFFKNPMNFFPEQMVTWSQQSNGSQTQLLQNFLNSSSSPEIQGFLHVKELGKKSWKKLYVCLRRSGLYCSTKGTSAAPRHLQLLADLEDSNIFSLIAGRKQYNAPTDHGLCIKPNKVRNETKELRLLCAEDEQTRTSWMTAFRLLKYGMLLYQNYRIPQQRKA	soluble
GSHMAASATAAAVAAEVISVHSLEQWTMQIEEANTAKKLVVIDFTASWCGPSRIMAPVFADLAKKFPNAVFLKVDVDELKPIAEQFSVEAMPTFLFMKEGDVKDRVVGAIKEELTAKVGLHAAAQ	soluble
GSHMASKPIEDYGKGKGRIEPMYIPDNTFYNADDFLVPPHCKPYIDKILLPGGLVKDRVEKLAYDIHRTYFGEELHIICILKGSRGFFNLLIDYLATIQKYSGRESSVPPFFEHYVRLKSYQNDNSTGQLTVLSDDLSIFRDKHVLIVEDIVDTGFTLTEFGERLKAVGPKSMRIATLVEKRTDRSNSLKGDFVGFSIEDVWIVGCCYDFNEMFRDFDHVAVLSDAARKKFEK	soluble
GSHMDKTFCVVVQNRIKEGYRRAGFSFHLGDNSLAAVSESQLAQLKADPRLVVQITETGSQEGGEGLSKEPAGSDEQKQLRADPPSTDLNTFTVEQLKAQLTERGITFKQSATKAELIALFAPADGEKSEA	soluble
GSHMGGWSIALHGGAGDIPFSLPPERRKPREEGLRHCLQIGVEALKAQKPPLDVVELVVRELENIEHFNAGIGSVLTNSGTVEMEASIMDGNTMKCGAVSGLSTVLNPISLARLVMDKTPHIYLAFQGAQDFAKQQGVETVDSSHLITAENVERLKLAIEANRVQVDYSQYNYPEPVKDDAEKELPLTNGDSQIG	soluble
GSHMKISEFLHLALPEEQWLPTISGVLRQFAEEECYVYERPPCWYLGKGCQARLHINADGTQATFIDDAGEQKWAVDSIADCARRFMAHPQVKGRRVYGQVGFNFAAHARGIAFNAGEWPLLTLTVPREELIFEKGNVTVYADSADGCRRLCEWVKEASTTTQNAPLAVDTALNGEAYKQQVARAVAEIRRGEYVKVIVSRAIPLPSRIDMPATLLYGRQANTPVRSFMFRQEGREALGFSPELVMSVTGNKVVTEPLAGTRDRMGNPEHNKAKEAELLHDSKEVLEHILSVKEAIAELEAVCLPGSVVVEDLMSVRQRGSVQHLGSGVSGQLAENKDAWDAFTVLFPSITASGIPKNAALNAIMQIEKTPRELYSGAILLLDDTRFDAALVLRSVFQDSQRCWIQAGAGIIAQSTPERELTETREKLASIAPYLMV	soluble
GSHMLTKQQIRYCLDEMAKMFPDAHCELVHRNPFELLIAVVLSAQCTDALVNKVTKRLFEKYRTPHDYIAVPLEELEQDIRSIGLYRNKARNIQKLCAMLIDKYNGEVPRDRDELMKLPGVGRKTANVVVSVAFGVPAIAVDTHVERVSKRLGFCRWDDSVLEVEKTLMKIIPKEEWSITHHRMIFFGRYHCKAQSPQCPSCPLLHLCREGKKRMRKREEKAANQK	soluble
GSHMNQCPEHSQLTTLGVDGKEFPEVHLGQWYFIAGAAPTKEELATFDPVDNIVFNMAAGSAPMQLHLRATIRMKDGLCVPRKWIYHLTEGSTDLRTEGRPDMKTELFSSSCPGGIMLNETGQGYQRFLLYNRSPHPPEKCVEEFKSLTSCLDSKAFLLTPRNQEACELSNN	soluble
GSHMSETDLLMKMVRQPVKLYSVATLFHEFSEVITKLEHSVQKEPTSLLSEENWHKQFLKFAQALPAHGSASWLNLDDALQAVVGNSRSAFLHQLIAKLKSRHLQVLELNKIGSEPLDLSNLPAPFYVLLPESFAARITLLVQDKALPYVRVSMEYWHALEYKGELNDPAANKARKEAELAAATAEQ	soluble
GSHMTALDWRSALTADEQRSVRALVTATTAVDGVAPVGEQVLRELGQQRTEHLLVAGSRPGGPIIGYLNLSPPRGAGGAMAELVVHPQSRRRGIGTAMARAALAKTAGRNQFWAHGTLDPARATASALGLVGVRELIQMRRPLRDIPEPTIPDGVVIRTYAGTSDDAELLRVNNAAFAGHPEQGGWTAVQLAERRGEAWFDPDGLILAFGDSPRERPGRLLGFHWTKVHPDHPGLGEVYVLGVDPAAQRRGLGQMLTSIGIVSLARRLGGRKTLDPAVEPAVLLYVESDNVAAVRTYQSLGFTTYSVDTAYALAGTDN	soluble
GSHMTIQKVHGREVLDSRGNPTVEVEVTTEKGVFRSAVPSGASTGVYEACELRDGDKKRYVGKGCLQAVKNVNEVIGPALIGRDELKQEELDTLMLRLDGTPNKGKLGANAILGCSMAISKAAAAAKGVPLYRYLASLAGTKELRLPVPCFNVINGGKHAGNALPFQEFMIAPVKATSFSEALRMGSEVYHSLKGIIKKKYGQDAVNVGDEGGFAPPIKDINEPLPILMEAIEEAGHRGKFAICMDCAASETYDEKKQQYNLTFKSPEPTWVTAEQLRETYCKWAHDYPIVSIEDPYDQDDFAGFAGITEALKGKTQIVGDDLTVTNTERIKMAIEKKACNSLLLKINQIGTISEAIASSKLCMENGWSVMVSHRSGETEDTYIADLVVALGSGQIKTGAPCRGERTAKLNQLLRIEEELGAHAKFGFPGWS	soluble
GSHMTYPKYLLSPETIEALRKPTFDVWLWEPNEMLSCLEHMYHDLGLVRDFSINPVTLRRWLFCVHDNYRNNPFHNFRHCFCVAQMMYSMVWLCSLQEKFSQTDILILMTAAICHDLDHPGYNNTYQINARTELAVRYNDISPLENHHCAVAFQILAEPECNIFSNIPPDGFKQIRQGMITLILATDMARHAEIMDSFKEKMENFDYSNEEHMTLLKMILIKCCDISNEVRPMEVAEPWVDCLLEEYFMQSDREKSEGLPVAPFMDRDKVTKATAQIGFIKFVLIPMFETVTKLFPMVEEIMLQPLWESRDRYEELKRIDDAMKELQKK	soluble
GSHSLRYFDIAVSRPGLGEPRYISVGYVDDTEFARYDSDAENRRYQPRARWMEREGPEYWERNTPIYKGKEQTFRVNLRTLRGYYNQSEGGSHTIQEMYGCDVGSDGSLLRGYEQFAYDGRDYIALNEDLKTWTAADFAARISRNKLERDGFADLHRAYLEGECVESLRRYLELGKETLLRSDPPKAHVTLHPRPEGDVTLRCWALGFYPADITLTWQLNGEDLTQDMELVETRPAGDGTFQKWASVVVPLGKEQNYTCRVEHEGLPKPLSQRWEPLEHHHHHH	soluble
GSMDQRQKLQHWIHSCLRKADKNKDNKMNFKELKDFLKELNIQVDDGYARKIFRECDHSQTDSLEDEEIETFYKMLTQRAEIDRAFEEAAGSAETLSVERLVTFLQHQQREEEAGPALALSLIERYEPSETAKAQRQMTKDGFLMYLLSADGNAFSLAHRRVYQDMDQPLSHYLVSSSHNTYLLEDQLTGPSSTEAYIRALCKGCRCLELDCWDGPNQEPIIYHGYTFTSKILFCDVLRAIRDYAFKASPYPVILSLENHCSLEQQRVMARHLRAILGPILLDQPLDGVTTSLPSPEQLKGKILLKGKKLGGLLPAGGENGSEATDVSDEVEAAEMEDEAVRSQVQHKPKEDKLKLVPELSDMIIYCKSVHFGGFSSPGTSGQAFYEMASFSESRALRLLQESGNGFVRHNVSCLSRIYPAGWRTDSSNYSPVEMWNGGCQIVALNFQTPGPEMDVYLGCFQDNGGCGYVLKPAFLRDPNTTFNSRALTQGPWWRPERLRVRIISGQQLPKVNKNKNSIVDPKVIVEIHGVGRDTGSRQTAVITNNGFNPRWDMEFEFEVTVPDLALVRFMVEDYDSSSKNDFIGQSTIPWNSLKQGYRHVHLLSKNGDQHPSATLFVKISIQD	soluble
GSMEPGPDGPAASGPAAIREGWFRETCSLWPGQALSLQVEQLLHHRRSRYQDILVFRSKTYGNVLVLDGVIQCTERDEFSYQEMIANLPLCSHPNPRKVLIIGGGDGGVLREVVKHPSVESVVQCEIDEDVIQVSKKFLPGMAIGYSSSKLTLHVGDGFEFMKQNQDAFDVIITDSSDPMGPAESLFKESYYQLMKTALKEDGVLCCQGECQWLHLDLIKEMRQFCQSLFPVVAYAYCTIPTYPSGQIGFMLCSKNPSTNFQEPVQPLTQQQVAQMQLKYYNSDVHRAAFVLPEFARKALNDVS	soluble
GSMEPPNLYPVKLYVYDLSKGLARRLSPIMLGKQLEGIWHTSIVVHKDEFFFGSGGISSCPPGGTLLGPPDSVVDVGSTEVTEEIFLEYLSSLGESLFRGEAYNLFEHNCNTFSNEVAQFLTGRKIPSYITDLPSEVLSTPFGQALRPLLDSIQIQPPGGSSVGRPNGQS	soluble
GSMPKPGILKSKSMFCVIYRSSKRDQTYLYVEKKDDFSRVPEELMKGFGQPQLAMILPLDGRKKLVNADIEKVKQALTEQGYYLQLPPPPEDLLKQHLSVMGQKTDDTNK	soluble
GSMTEADVNPKAYPLADAHLTKKLLDLVQQSCNYKQLRKGANEATKTLNRGISEFIVMAADAEPLEIILHLPLLCEDKNVPYVFVRSKQALGRACGVSRPVIACSVTIKEGSQLKQQIQSIQQSIERLLV	soluble
GSPGISGGGGGSHIEGYECQPIFLNVLEAIEPGVVCAGHDNNQPDSFAALLSSLNELGERQLVHVVKWAKALPGFRNLHVDDQMAVIQYSWMGLMVFAMGWRSFTNVNSRMLYFAPDLVFNEYRMHKSRMYSQCVRMRHLSQEFGWLQITPQEFLCMKALLLFSIIPVDGLKNQKFFDELRMNYIKELDRIIACKRKNPTSCSRRFYQLTKLLDSVQPIARELHQFTFDLLIKSHMVSVDFPEMMAEIISVQVPKILSGKVKPIYFHTQ	soluble
GSQITGTCPSGCSGDCYPECPPGCCGQVNLN	soluble
GSSGSSGMSSMTQNLREVMKVMFKVPGFDRVLEKVTLVSAAPEKLICEMKVEEQHTNKLGTLHGGLTATLVDSISTMALMCTERGAPGVSVDMNITYMSPAKIGEEIVITAHILKQGKTLAFASVDLTNKTTGKLIAQGRHTKHLGNSGPSSG	soluble
